The target of experiment [1] is HLA-DP DPB1*0101 (human). Briefly: inhibition of radiolabeled peptide binding to purified HLA-DP.
Experiment [2] deals with HLA-DP DPB1*0402 (human). Described as above.
Experiment [3] has as its target HLA-DP DPB1*0501 (human). The experiment is described as above.
For experiment [4], the target named is HLA DP molecule DPB1*2001 (human). Briefly: inhibition of radiolabeled peptide binding to purified HLA DP.
Experiment [5] concerns the target HLA-DQ molecule DQB1*0502 (human). Briefly: competition: inhibition of radiolabeled peptide binding to purified HLA.
For experiment [6], the target named is HLA-DQ molecule DQB1*0503 (human). Described as above.
The target in experiment [7] is HLA-DQ molecule DQB1*0602 (human). The experiment is described as above.
For experiment [8], the target named is HLA DP molecule DPB1*2001 (human). Briefly: competition vs radiolabeled peptide, purified HLA-DP.
The target in experiment [9] is HLA-DP DPB1*1401 (human). Briefly: inhibition of radiolabeled peptide binding to purified HLA-DP.
In experiment [10] the target is HLA-DP DPB1*2001 (human). Described as above.

In the case of Aln g 1 (11-25) peptide 3324.0004, the half-maximal inhibitory concentration (IC50) in [1] is 85 nM; in experiment [2] it was 1500 nM; in experiment [3], 493 nM.

For Aln g 1 (111-125) peptide 3324.0007, the IC50 in [1] is 391 nM; in [3] it was 3.3 nM.

Take “Alt a 1 peptide, position 6 (Peptide ID 3324.0015)”: the IC50 in experiment [4] was 2090 nM.

For “Alt a 1 peptide, position 6, Peptide ID 3324.0015”, the figures for the IC50 in experiment [5] and in experiment [6] were 7020 nM and 7260 nM, respectively.

Turning to “Alt a 1 peptide, position 11, Peptide ID 3324.0017”, the results for the IC50 in experiment [5], in [6] and in [7] were 8000 nM, 223 nM and 21 nM, respectively.

For the substance “Alt a 1 peptide, position 116 (Peptide ID 3324.0014)”, in experiment [4], the IC50 worked out at 200 nM.

“Alt a 1 peptide, position 116, Peptide ID 3324.0014”: the half-inhibitory concentration (IC50) is 8970 nM in experiment [5] and 2230 nM in experiment [7].

In [8], “Alt a 6 peptide, position 161, … (Peptide ID 3324.0073)” displayed a half-inhibitory concentration (IC50) of 7640 nM.

Take Bet v 1 (96-110) peptide 3324.0353: the IC50 came out at 4090 nM in experiment [1], 5980 nM in experiment [9] and 5920 nM in experiment [10].

With Bet v 1 (111-125) peptide 3324.0352, the IC50 was found to be 279 nM in experiment [1], 2.2 nM in [3], 7590 nM in experiment [9] and 13000 nM in [10].

Bet v 6 (206-220) peptide 3324.0387: the figures for the half-maximal inhibitory concentration (IC50) in [9] and in experiment [10] were 3770 nM and 3.3 nM, respectively.

For Bet v 6 (211-225) peptide 3324.0386, the results for the IC50 in experiment [1] and in experiment [3] were 1610 nM and 1050 nM, respectively.

As for Cha o 1 (86-100) peptide 3324.0517, the IC50 came to 11 nM in [3] and 83 nM in [10].

As to “Cha o 1 peptide 96-110 … (Peptide ID 3324.0523)”, the IC50 in [3] is 7500 nM; in experiment [9], 525 nM; in experiment [10], 4960 nM.

In the case of “Cla h 5 peptide, position 6, … (Peptide ID 3324.0576)”, in experiment [8], the IC50 was 143 nM.

For “Cup a 1 peptide 66-80 … (Peptide ID 3324.0604)”, the IC50 in experiment [1] worked out at 6940 nM; in experiment [9], 29 nM; in [10], 23900 nM.

“Cup a 1 peptide 71-85 … (Peptide ID 3324.0607)”: the IC50 was determined as 692 nM in experiment [1], 3580 nM in experiment [9] and 13600 nM in experiment [10].

As to “Cup a 1 peptide 316-330 … (Peptide ID 3324.0606)”, the values for the IC50 in experiment [1], in [9] and in experiment [10] were 8240 nM, 155 nM and 25500 nM, respectively.

Regarding “Cup s 1 peptide 86-100 … (Peptide ID 3324.0615)”, the IC50 in experiment [1] was 676 nM; in experiment [10], 9180 nM.

In the case of “Cup s 1 peptide 91-105 … (Peptide ID 3324.0618)”, the IC50 is 806 nM in experiment [1], 75 nM in [2], 179 nM in [3] and 35400 nM in experiment [10].

“Cup s 1 peptide 96-110 … (Peptide ID 3324.0624)”: the concentration for half-maximal inhibition (IC50) in experiment [1] amounted to 2360 nM; in experiment [10], 25700 nM.

In the case of “Dac g 2 peptide 11-25 … (Peptide ID 3324.0657)”, the values for the IC50 in experiment [9] and in experiment [10] were 8100 nM and 6270 nM, respectively.

Regarding “Dac g 2 peptide 16-30 … (Peptide ID 3324.0658)”, the IC50 in experiment [1] worked out at 1350 nM; in experiment [3], 717 nM; in experiment [9], 32000 nM.

“Dac g 4 peptide 1-15 … (Peptide ID 3324.0663)” showed an IC50 in experiment [3] of 1440 nM.

The substance Der f 1 (136-150) peptide 3324.0666 returned an IC50 in [1] of 8430 nM.

Substance Der p 1 (131-145) peptide 3324.0832 showed a concentration for half-maximal inhibition (IC50) in experiment [10] of 7.7 nM.

Regarding Der p 1 (136-150) peptide 3324.0829, the IC50 in experiment [1] is 1200 nM; in [3] it was 4930 nM; in experiment [9], 9420 nM; in [10] it was 449 nM.

In experiment [3], Der p 1 (176-190) peptide 3324.0831 registered an IC50 of 35200 nM.

For Der p 1 (226-240) peptide 3324.0840, the IC50 in experiment [2] came out at 32 nM; in experiment [3], 4000 nM; in experiment [10], 310 nM.

For the substance Der p 4 (96-110) peptide 3324.0987, the IC50 in [1] is 15500 nM; in experiment [3], 3450 nM; in experiment [10], 2930 nM.

On to Der p 4 (251-265) peptide 3324.0976, for which the IC50 in experiment [10] turned out to be 247 nM.

For Der p 4 (321-335) peptide 3324.0977, the IC50 in experiment [1] was 1640 nM; in experiment [3], 5070 nM; in experiment [10], 1000 nM.

Turning to Der p 4 (381-395) peptide 3324.0986, the IC50 in experiment [1] was found to be 324 nM.

Take Der p 4 (386-400) peptide 3324.0978: the IC50 in experiment [3] is 2230 nM; in [10], 9000 nM.

On to Der p 4 (411-425) peptide 3324.0980, for which the IC50 in [1] came out at 400 nM; in [2], 1510 nM; in experiment [9] it was 703 nM; in experiment [10] it was 6.9 nM.

With Der p 4 (416-430) peptide 3324.0974, the 50% inhibitory concentration (IC50) is 9.1 nM in [1], 13 nM in experiment [3] and 3.5 nM in experiment [10].

Consider Der p 4 (476-490) peptide 3324.0975, for which the 50% inhibitory concentration (IC50) in experiment [1] stood at 323 nM; in experiment [2], 83 nM; in experiment [3], 76 nM; in experiment [10] it was 379 nM.

Regarding Der p 4 (482-496) peptide 3324.0971, the IC50 in [1] was 173 nM; in experiment [2] it was 66 nM; in experiment [9] it was 11400 nM; in experiment [10] it was 509 nM.

“Lol p 2 peptide 51-65 … (Peptide ID 3324.1139)” came in with an IC50 in [10] of 7940 nM.

“Lol p 2 peptide 56-70 … (Peptide ID 3324.1140)” came in with an IC50 in [3] of 12400 nM.

Consider “Lol p 11 peptide 111-125 … (Peptide ID 3324.1138)”, for which the half-maximal inhibitory concentration (IC50) in [1] was determined as 205 nM; in experiment [3], 0.25 nM; in [10] it was 223 nM.

On to “Lol p 11 peptide 116-130 … (Peptide ID 3337.0029)”, for which the IC50 was 51 nM in [3], 18100 nM in [9] and 8.1 nM in [10].

With “Que a 1 peptide 11-25 … (Peptide ID 3324.1587)”, the IC50 amounted to 114 nM in [1] and 341 nM in experiment [3].

With “Que a 1 peptide 16-30 … (Peptide ID 3324.1585)”, the results for the IC50 in [1], in experiment [3] and in [10] were 17 nM, 80 nM and 274 nM, respectively.

Consider “Que a 1 peptide 21-35 … (Peptide ID 3324.1588)”, for which the results for the IC50 in experiment [1], in experiment [3] and in experiment [10] were 141 nM, 242 nM and 3490 nM, respectively.

As to “Que a 1 peptide 141-155 … (Peptide ID 3324.1584)”, the IC50 in [1] was determined as 21 nM; in experiment [3], 31 nM; in experiment [9], 40 nM; in experiment [10], 1300 nM.

Regarding “Sal k 1 1 peptide 191-205, … (Peptide ID 3324.1590)”, the 50% inhibitory concentration (IC50) in experiment [1] turned out to be 922 nM; in experiment [9], 1920 nM; in experiment [10], 558 nM.

Consider “Sal k 1 1 peptide 321-335, … (Peptide ID 3324.1589)”, for which the IC50 in [1] was 56 nM; in experiment [10], 4880 nM.

Usually IC50 stands for the concentration that gives 50% inhibition. A low value points to inhibition by little substance.

The values above are taken from patent US20150004189A1.
